Measured values from patent publication EP2762886A1.

Biological target: 4E wild type (overexpressed in stably transfected NIH3T3 cells)
Assay: cell-based or functional assay

## human promyelocytic leukemia protein PML (overexpressed from pLINKSV40-PML) (from UniProt P29590 1-882)
  viability of serum deprived cells (annexin V / propidium iodide flow cytometry) (% viable cells): 40
